Assay in all cases: SPR, KD relative to WT C2;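 note: biacore SPR at 37 °C, anti-C2 mAbs captured on anti-human IgG chips with alanine or serine point mutants of C2 as analyte, KD from 1:1 fit compared with wild-type C2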
The target of experiment [1] is T1, human C2 R688A (human, UniProt P06681 21-752).
T1 sequence: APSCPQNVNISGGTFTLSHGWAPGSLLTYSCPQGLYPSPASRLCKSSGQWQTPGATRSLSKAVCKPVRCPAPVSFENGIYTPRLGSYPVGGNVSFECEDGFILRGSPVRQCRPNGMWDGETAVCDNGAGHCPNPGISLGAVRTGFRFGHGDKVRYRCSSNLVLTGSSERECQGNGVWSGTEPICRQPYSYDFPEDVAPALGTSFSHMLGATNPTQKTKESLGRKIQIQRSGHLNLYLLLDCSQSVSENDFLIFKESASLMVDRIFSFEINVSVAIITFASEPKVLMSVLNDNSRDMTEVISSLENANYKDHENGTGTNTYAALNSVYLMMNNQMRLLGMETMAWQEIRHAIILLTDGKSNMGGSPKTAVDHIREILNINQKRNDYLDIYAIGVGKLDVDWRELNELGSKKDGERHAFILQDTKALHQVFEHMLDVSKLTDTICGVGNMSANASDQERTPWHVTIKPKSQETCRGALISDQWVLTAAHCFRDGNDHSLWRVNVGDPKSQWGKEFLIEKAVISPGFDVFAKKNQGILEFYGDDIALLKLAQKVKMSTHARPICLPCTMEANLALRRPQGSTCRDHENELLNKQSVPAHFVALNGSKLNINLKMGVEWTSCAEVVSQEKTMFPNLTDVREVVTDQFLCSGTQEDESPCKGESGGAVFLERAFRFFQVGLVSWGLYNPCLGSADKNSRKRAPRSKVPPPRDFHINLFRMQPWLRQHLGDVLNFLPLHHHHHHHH

Experiment [2] concerns the target T2, human C2 W420A (human, UniProt P06681 21-752).
T2 sequence: T1 sequence with W400A, A668R

The target in experiment [3] is T3, human C2 D404A (human, UniProt P06681 21-752).
T3 sequence: T1 sequence with D384A, A668R

Experiment [4] concerns the target T4, human C2 G427A (human, UniProt P06681 21-752).
T4 sequence: T1 sequence with G407A, A668R

Residue numbers refer to the chain shown, from its start.

B1: RF16-242 (antibody, human IgG4 S228P, lambda, V domains shown)
VH: EVQLLQSGAEVKKPGESLKISCKGSGYSFTSYWIGWVRQMPGKGLEWMGIIYPGDSDTRYSPSFQGQVTISADKSISTAYLQWSSLKASDTAMYYCARRGHYGDYFDYWGQGTLVTVSS
VL: SYELTQPPSVSVSPGQTARITCSGDALPKKYAYWYHQKSGQAPVLVIYEDRRRPSEIPERFSGSSSGTMATLTITGAQVEDEGVYFCYSRDRAGNQRVFGGGTQLTVLG
notes: pH-dependent anti-C2 antibody from a phage display library
In the case of B1, the Fold diff in experiment [1] is 2 fold; in experiment [2], 2 fold; in experiment [3] it was 2 fold; in experiment [4], 1 fold.
